Broadly, the Kd is the free concentration of one partner at which half of the binding sites on the other are occupied at equilibrium, for simple one-to-one binding. One may read the stoichiometry N as the number of molecules, sites or subunits per partner or assembly.

We go through three molecules from paper PMC2988878 (Nature structural & molecular biology, 2010).

Several values for one entry are separate records, joined by “and”; a condition that tells them apart may be missing. Identical values can stand only once.

In data set [1] the target is Pup (Mycobacterium tuberculosis) (UniProt P9WHN5). As to the kind of experiment: anisotropy. The following applies: cited from earlier work.
The target in data set [2] is T1, Mycobacterium proteasomal ATPase Mpa, residues 1-234 (Mpa1-234) (Mycobacterium tuberculosis, UniProt P9WQN5 1-234).
T1 sequence: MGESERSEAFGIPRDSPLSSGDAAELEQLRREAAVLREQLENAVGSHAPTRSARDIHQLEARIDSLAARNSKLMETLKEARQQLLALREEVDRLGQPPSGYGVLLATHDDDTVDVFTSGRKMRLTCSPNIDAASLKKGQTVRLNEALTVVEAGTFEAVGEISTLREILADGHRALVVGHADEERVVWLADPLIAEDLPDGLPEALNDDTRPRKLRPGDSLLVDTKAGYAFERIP
The experiment in a line: crystal structure.

The data set “crystal structure” concerns the molecule itself. As to the kind of experiment: crystal structure.

Regarding Mpa (from UniProt P9WQN5), the Kd in data set [1] was 4.2 µM and 3.4 µM.

B1: Full-length prokaryotic ubiquitin-like protein, Pup1-64-GGQ with a C-terminal non-cleavable His6-tag (natural protein)
chain: MAQEQTKRGGGGGDDDDIAGSTAAGQERREKLTEETDDLLDEIDDVLEENAEDFVRAYVQKGGQ
As to B1, the binding result in data set [2] is “binds”.

B2: Mpa coiled-coil domain, residues 46-96 (Mpa46-96) (domain or fragment)
chain: SHAPTRSARDIHQLEARIDSLAARNSKLMETLKEARQQLLALREEVDRLGQ
In the case of B2, the “stoichiometry N” value in the data set “crystal structure” was 2.
